The record followed here is patent publication US20110256144A1 (TORAY INDUSTRIES, published 2011).

For experiment [1], the target named is T1, human CAPRIN-1 protein on human cancer cells (human, UniProt Q14444 2-709).
T1 sequence (looked up): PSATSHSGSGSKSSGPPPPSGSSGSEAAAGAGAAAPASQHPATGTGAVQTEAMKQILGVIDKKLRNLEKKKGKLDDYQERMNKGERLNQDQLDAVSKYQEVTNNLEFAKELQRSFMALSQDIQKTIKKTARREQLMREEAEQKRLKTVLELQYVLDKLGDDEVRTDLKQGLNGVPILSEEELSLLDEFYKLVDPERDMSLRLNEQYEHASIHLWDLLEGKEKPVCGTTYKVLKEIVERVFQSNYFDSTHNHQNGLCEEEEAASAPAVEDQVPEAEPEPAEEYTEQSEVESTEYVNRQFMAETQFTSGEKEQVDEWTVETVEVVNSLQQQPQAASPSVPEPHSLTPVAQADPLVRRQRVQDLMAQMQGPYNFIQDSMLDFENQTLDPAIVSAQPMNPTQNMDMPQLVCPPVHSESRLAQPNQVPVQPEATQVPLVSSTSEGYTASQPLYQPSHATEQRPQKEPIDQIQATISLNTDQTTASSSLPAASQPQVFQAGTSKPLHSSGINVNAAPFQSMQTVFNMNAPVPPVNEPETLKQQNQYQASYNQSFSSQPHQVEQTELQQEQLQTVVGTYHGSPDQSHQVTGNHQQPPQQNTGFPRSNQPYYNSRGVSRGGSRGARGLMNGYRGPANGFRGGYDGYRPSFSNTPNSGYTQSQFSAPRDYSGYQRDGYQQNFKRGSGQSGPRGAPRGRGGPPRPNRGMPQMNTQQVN
Briefly: cell-based or functional assay.

The target in experiment [2] is T1, human CAPRIN-1 protein on human cancer …. Briefly: flow cytometry, hybridoma supernatant on human breast cancer, glioma, kidney, gastric, colon, lung cancer and leukemia cell lines; increase in MFI over control. On the procedure:
Each cell line (10⁶ cells) was centrifuged in a 1.5-ml microcentrifugal tube. The hybridoma supernatants (100 μl each) containing monoclonal antibodies #1 to #10 against CAPRIN-1 prepared in Example 4 reacting to cancer cell surfaces were separately added thereto and then left to stand on ice for 1 hour. After washing with PBS, each resultant was suspended in an FITC-labeled goat anti-mouse IgG antibody (Invitrogen Corporation) diluted 500-fold with PBS containing 0.1% FBS and then left to stand on ice for 1 hour. After washing with PBS, fluorescence intensity was measured using FACSCalibur (Becton, Dickinson and Company). Meanwhile, a procedure similar to the above was performed using, as a control, the control antibody prepared in (5) above instead of the hybridoma supernatants containing monoclonal antibodies #1 to […] against CAPRIN-1, so that a control was prepared. […] Based on the above, it was confirmed that the CAPRIN-1 protein was expressed on the cell surfaces of the above human cancer cell lines. In addition, the rate of increase in fluorescence intensity is represented by the rate of increase in mean fluorescence intensity (MFI value) in cells. It was calculated by the following equation.
In general terms: Flow cytometry measures light scatter and fluorescence of single cells or particles in a stream.

Some results are limits rather than exact numbers.

B1: monoclonal antibody #1 against CAPRIN-1 (antibody, V domains shown)
VH: EVQLHQFGAELVKPGASVKISCKASGYTFTDYNMDWVKQSHGKSLEWIGDINPNYDSTSYNQKFKGKATLTVDKSSSTAYMELRSLTSEDTAVYYCARSRSYDYEGFAYWGQGTLVTVSA
VL: DIQMTQSPASLSASVGETVTITCRASGNIHNYLAWYQQKQGKSPQLLVYNAKTLADGVPSRFSGSGSGTQYSLKINSLQPEDFGSYYCQHFWSTLTFGAGTKLELKR
notes: also called the #1 monoclonal antibody to CAPRIN-1; antibody (a)
Consider B1, for which, in experiment [1], the “ADCC activity (chromium 51 release, mouse lymphocytes), MDA-MB-157 cells” value (shortened to “ADCC activity”) is no less than 20% and the “CDC activity (chromium 51 release, rabbit serum), MDA-MB-231V cells” value (“CDC activity” for short) is no less than 30%. Moreover, the “increase in fluorescence intensity over control” value (shortened to “increase”) in experiment [2] was no less than 30%.

B2: monoclonal antibody #3 against CAPRIN-1 (antibody, V domains shown)
VH: B1 VH
VL: DIQLTQSPASLSASVGETVTITCRASGNIHNYLAWYQQKQGKSPQLLVYNAKTLADGVPSRFSGSGSGTQYSLKINSLQPEDFGSYYCQHFWSTLTFGGGTKLEIK
notes: Mouse monoclonal antibody from a hybridoma; also called the #3 monoclonal antibody to CAPRIN-1; antibody (c)
Regarding B2, in experiment [1], the “ADCC activity” value was no less than 20% and the “CDC activity” value is no less than 30%. Also, the “increase” value in experiment [2] was no less than 30%.

B3: monoclonal antibody #4 against CAPRIN-1 (antibody, V domains shown)
VH: B1 VH
VL: SGDRVSLSCRASQSISNYLHWYQQKSHESPRLLIKYASQSISGIPSRFSGSGSGTDFTLSINSVETEDFGMYFCQQSNSWPYTFGAGTKLEIKQ
notes: Mouse monoclonal antibody from a hybridoma; also called the #4 monoclonal antibody to CAPRIN-1; antibody (d)
Turning to B3, in experiment [1], the “ADCC activity” value is no less than 20% and the “CDC activity” value is no less than 30%. Besides, in experiment [2], the “increase” value is no less than 30%.

B4: monoclonal antibody #7 against CAPRIN-1 (antibody, V domains shown)
VH: LQESGAELARPGASVKLSCKASGYTFTSYWMQWVKQRPGQGLEWIGAIYPGDGDTRYTQKFKGKATLTADKSSSTAYMQLSSLASEDSAVYYCARGEYGNYFAYWGQGTTVTVSS
VL: TSDASLGERVTITCKASQDINSYLSWFQQKPGKSPKTLIYRANRLVDGVPSRFSGSGSGQDYSLTISSLEYEDMGIYYCLQYDEFPLTFGGGTKLEIKQ
notes: Mouse monoclonal antibody from a hybridoma; also called the #7 monoclonal antibody to CAPRIN-1; antibody (g)
Regarding B4, in experiment [1], the “ADCC activity” value was no less than 20% and the “CDC activity” value was no less than 30%. The “increase” value in experiment [2] was no less than 30%.
